From article PMC6547412 come the findings set out here.

What is called Kd is a measure of binding affinity in units of concentration. The low end stands for higher affinity, the high end for lower affinity.

The target in one data set is T1, eIF4A;eIF4G-MC (eIF4G) (yeast;yeast, UniProt P10081;P39935 1-395;572-952, |).
T1 sequence 1: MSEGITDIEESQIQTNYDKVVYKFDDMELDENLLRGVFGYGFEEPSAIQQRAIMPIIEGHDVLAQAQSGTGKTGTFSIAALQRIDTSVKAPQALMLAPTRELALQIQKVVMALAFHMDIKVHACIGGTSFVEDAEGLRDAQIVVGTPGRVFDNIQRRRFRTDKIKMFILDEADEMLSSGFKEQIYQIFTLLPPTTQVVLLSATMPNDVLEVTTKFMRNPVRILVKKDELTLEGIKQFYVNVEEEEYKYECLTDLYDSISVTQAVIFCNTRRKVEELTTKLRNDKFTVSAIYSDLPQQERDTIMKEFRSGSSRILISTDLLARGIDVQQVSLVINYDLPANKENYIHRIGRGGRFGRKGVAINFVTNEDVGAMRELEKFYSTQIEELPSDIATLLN
T1 sequence 2: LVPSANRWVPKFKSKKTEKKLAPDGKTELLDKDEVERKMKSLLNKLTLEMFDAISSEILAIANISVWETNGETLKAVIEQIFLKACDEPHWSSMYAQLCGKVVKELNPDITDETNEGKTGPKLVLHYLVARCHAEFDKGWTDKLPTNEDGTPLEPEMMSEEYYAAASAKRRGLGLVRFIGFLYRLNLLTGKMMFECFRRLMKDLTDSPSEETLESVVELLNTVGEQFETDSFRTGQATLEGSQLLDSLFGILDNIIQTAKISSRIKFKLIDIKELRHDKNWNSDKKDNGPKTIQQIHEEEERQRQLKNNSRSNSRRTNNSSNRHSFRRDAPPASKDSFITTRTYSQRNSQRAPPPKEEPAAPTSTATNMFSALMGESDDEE
Briefly: EMSA. (In general: A gel shift assay detects complexes by their altered migration in electrophoresis.)

A further data set addresses T2, eIF4G-MC (eIF4G) (yeast, UniProt P39935 572-952).
T2 sequence: T1 sequence 2
Briefly: EMSA.

Data set [1] concerns the target T3, eIF4A;eIF4B;eIF4G-MC (eIF4G) (yeast;yeast;yeast, UniProt P10081;P34167;P39935 1-395;1-436;572-952, ||).
T3 sequence 1: T1 sequence 1
T3 sequence 2: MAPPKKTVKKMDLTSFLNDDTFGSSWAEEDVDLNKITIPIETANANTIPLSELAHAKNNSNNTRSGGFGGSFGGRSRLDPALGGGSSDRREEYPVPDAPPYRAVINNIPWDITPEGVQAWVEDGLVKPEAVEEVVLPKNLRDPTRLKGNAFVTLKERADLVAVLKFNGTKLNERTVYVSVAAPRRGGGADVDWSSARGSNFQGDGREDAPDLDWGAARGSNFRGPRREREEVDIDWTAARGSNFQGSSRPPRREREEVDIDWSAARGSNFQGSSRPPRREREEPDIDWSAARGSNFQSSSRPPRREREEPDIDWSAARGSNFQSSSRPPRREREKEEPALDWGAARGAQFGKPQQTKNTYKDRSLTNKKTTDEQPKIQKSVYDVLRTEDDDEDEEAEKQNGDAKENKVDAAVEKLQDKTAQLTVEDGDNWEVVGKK
T3 sequence 3: T1 sequence 2
The experiment in a line: fluorescence anisotropy. For orientation: Polarisation of emitted light reports the rotation of a fluorescent probe.

Another data set deals with T4, eIF4B (yeast, UniProt P34167 1-436).
T4 sequence: T3 sequence 2
The experiment in a line: EMSA.

B1: 20/10mer RNA (dsRNA)
RNA 1: ACUAGCACCGUAAAGCACGC
RNA 2: GCUUUACGGU
For the molecule B1, the binding result in the data set with eIF4A;eIF4G-MC (eIF4G) is reported as “binds”; with eIF4G-MC (eIF4G), “no binding”. This molecule also displayed a Kd in data set [1] of 3500 ± 500 nM.

B2: 30/10mer RNA (dsRNA)
RNA 1: GGGGAGAAAAACUAGCACCGUAAAGCACGC
RNA 2: GCUUUACGGU
Regarding B2, the binding result with eIF4B is listed as “binds”. In addition, the Kd in data set [1] was 1200 ± 300 nM.
